Experimental data taken from patent publication US20090060908A1.

Biological target: CD16 (FcγRIII) on human peripheral blood effector cells (human) (UniProt P08637)
Assay: cell-based or functional assay

Sequence of CD16 (FcγRIII) on human peripheral blood effector cells (human) (P08637 17-254): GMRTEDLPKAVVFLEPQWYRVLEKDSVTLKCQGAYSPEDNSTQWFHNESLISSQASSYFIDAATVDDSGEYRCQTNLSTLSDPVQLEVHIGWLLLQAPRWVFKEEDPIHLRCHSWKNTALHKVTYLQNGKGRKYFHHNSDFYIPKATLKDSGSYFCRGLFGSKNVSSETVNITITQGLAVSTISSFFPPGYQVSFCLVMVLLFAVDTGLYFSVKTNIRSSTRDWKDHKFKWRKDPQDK

% lysis in ADCC by 1 µg/ml 2A10 (fucosylated or defucosylated) with 5 µg/ml anti-CD16 antibody 3G8: < 5%
% lysis in ADCC by 1 µg/ml 7F12 (CHO-derived or chicken-derived) with 5 µg/ml anti-CD16 antibody 3G8: 4%
Substance: anti-CD16 antibody 3G8
